Experimental findings from US20140024606A1 are described below.

Assay [1] has as its target CD36 on RAW 264.7 murine macrophage cells (murine) (UniProt Q08857). Nature of the assay: cell-based or functional assay.
The target in assay [2] is recombinant soluble His-tagged CD36. Kind of assay: SPR; His-tagged soluble CD36 immobilized, peptide 100 nM to 30 µM, Langmuir isotherm fit. In general terms: Surface plasmon resonance follows binding to a sensor surface in real time, without labels.
For assay [3], the target named is IL-1 receptor (IL-1R) on cells (UniProt P14778). Nature of the assay: cell-based or functional assay.
Sequence of IL-1 receptor (IL-1R) on cells (P14778 18-569 limits assumed): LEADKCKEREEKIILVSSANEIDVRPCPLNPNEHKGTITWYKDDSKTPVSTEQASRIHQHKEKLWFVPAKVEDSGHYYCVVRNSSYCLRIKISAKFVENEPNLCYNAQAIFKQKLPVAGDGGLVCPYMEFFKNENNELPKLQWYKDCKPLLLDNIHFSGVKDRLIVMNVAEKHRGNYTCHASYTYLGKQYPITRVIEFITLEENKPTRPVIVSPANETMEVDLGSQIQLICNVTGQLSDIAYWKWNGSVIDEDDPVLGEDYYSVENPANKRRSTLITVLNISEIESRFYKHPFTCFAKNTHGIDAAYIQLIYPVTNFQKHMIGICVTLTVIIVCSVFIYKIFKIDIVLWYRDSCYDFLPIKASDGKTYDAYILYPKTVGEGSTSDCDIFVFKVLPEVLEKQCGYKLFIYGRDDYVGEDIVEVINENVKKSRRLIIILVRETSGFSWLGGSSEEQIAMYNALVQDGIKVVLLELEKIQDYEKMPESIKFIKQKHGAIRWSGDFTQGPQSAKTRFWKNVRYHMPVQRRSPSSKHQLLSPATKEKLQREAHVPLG

Sequence of recombinant soluble His-tagged CD36 (P16671 30-439): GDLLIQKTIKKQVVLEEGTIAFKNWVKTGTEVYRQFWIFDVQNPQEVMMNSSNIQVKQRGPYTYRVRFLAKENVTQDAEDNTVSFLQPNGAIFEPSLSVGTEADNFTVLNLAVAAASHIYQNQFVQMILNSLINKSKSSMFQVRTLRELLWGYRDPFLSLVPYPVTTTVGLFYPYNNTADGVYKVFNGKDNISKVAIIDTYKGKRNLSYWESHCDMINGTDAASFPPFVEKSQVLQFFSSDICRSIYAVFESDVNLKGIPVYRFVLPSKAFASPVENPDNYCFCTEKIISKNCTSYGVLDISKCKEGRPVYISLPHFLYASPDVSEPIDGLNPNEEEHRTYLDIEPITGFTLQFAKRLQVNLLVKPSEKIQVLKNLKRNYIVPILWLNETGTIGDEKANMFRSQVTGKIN
Sequence of CD36 on RAW 264.7 murine macrophage cells (murine) (Q08857 whole entry): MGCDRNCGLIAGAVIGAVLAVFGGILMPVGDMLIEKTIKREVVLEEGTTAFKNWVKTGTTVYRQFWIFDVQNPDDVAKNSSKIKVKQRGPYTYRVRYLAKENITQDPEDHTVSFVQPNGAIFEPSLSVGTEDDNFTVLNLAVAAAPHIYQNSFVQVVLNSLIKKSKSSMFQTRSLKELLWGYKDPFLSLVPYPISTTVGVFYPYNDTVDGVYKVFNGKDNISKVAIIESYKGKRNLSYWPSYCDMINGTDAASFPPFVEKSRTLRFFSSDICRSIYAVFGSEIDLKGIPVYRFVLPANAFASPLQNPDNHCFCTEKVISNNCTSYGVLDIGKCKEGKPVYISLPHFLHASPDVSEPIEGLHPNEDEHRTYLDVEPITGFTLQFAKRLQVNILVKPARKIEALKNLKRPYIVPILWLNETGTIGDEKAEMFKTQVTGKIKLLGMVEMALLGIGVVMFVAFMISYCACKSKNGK

In general, Kd refers to the free concentration of one partner at which half of the binding sites on the other are occupied at equilibrium, for simple one-to-one binding. For the substance “[N-Amino-4-benzylimidazolin-2-one^4]GHRP-6 (His-D-Trp-Ala-(N-amino-4-benzyl-imidazolin-2-one)-D-Phe-Lys-NH2), 31b (peptide)”, the JNK-kinase cellular assay EC50 in assay [1] was > 10 µM. Moreover, in assay [2], the Kd was found to be 11 µM and the ΔλSPR (nm) amounted to 1.6 nm.

As for “Kineret (from UniProt P18510 26-177) (ligand)”, the decrease in NF-KB activation in HEK Blue cells (SEAP reporter, OD620) in assay [3] worked out at 100%.

The substance “[N-Amino-4-methylimidazolin-2-one^4]GHRP-6 (His-D-Trp-Ala-(N-amino-4-methyl-imidazolin-2-one)-D-Phe-Lys-NH2), RS-31a (peptide)” gave a JNK-kinase cellular assay EC50 in assay [1] of 0.0554 µM. Besides, in assay [2], the equilibrium dissociation constant (Kd) was 4.9 µM and the ΔλSPR (nm) is 1.1 nm. In the case of [(R)-Agl^3]-101.10 (peptide), the IL-1β-induced human thymocyte (TF-1) proliferation in assay [3] is 41%. “[azaTyr^4]GHRP-6 (His-D-Trp-Ala-AzaTyr-D-Phe-Lys-NH2) (peptide)” gave a JNK-kinase cellular assay EC50 in assay [1] of 0.214 µM. Further, in assay [2], the Kd stood at 5 µM and the ΔλSPR (nm) turned out to be 1.8 nm. With “[Nai^3]-101.10 (D-Arg-D-Tyr-Nai-D-Val-D-Glu-D-Leu-D-Ala-NH2) (peptide)”, in assay [3], the IL-1β-induced human thymocyte (TF-1) proliferation came out at 77% and the decrease in NF-KB activation in HEK Blue cells (SEAP reporter, OD620) worked out at 65%. Consider “[Nad^3]-101.10 (D-Arg-D-Tyr-Nad-D-Val-D-Glu-D-Leu-D-Ala-NH2) (peptide)”, for which, in assay [3], the IL-1β-induced human thymocyte (TF-1) proliferation is 53%. Same read-out and setting: under “[Nap^3]-101.10 (D-Arg-D-Tyr-Nap-D-Val-D-Glu-D-Leu-D-Ala-NH2) (peptide)” stands 41%.
